Patent US20060259987A1 (UNIVERSITY OF UTAH RESEARCH FOUNDATION, published 2006)

T1: human neutrophil cathepsin G (human, UniProt P08311 21-244)
T1 sequence (looked up): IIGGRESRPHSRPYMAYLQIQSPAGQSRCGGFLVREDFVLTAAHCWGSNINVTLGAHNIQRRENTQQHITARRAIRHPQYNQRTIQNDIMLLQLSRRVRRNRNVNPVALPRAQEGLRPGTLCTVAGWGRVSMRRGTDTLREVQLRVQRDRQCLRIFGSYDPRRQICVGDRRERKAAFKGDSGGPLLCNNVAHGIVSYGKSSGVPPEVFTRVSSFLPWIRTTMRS

T2: human neutrophil elastase (human, UniProt P08246 30-247, limits assumed)
T2 sequence (looked up): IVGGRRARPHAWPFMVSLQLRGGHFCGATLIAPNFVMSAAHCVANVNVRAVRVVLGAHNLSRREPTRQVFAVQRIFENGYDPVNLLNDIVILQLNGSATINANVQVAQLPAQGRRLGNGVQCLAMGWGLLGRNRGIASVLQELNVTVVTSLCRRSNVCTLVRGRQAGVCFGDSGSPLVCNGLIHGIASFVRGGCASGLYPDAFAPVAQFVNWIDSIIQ

B1: LEAQ.502 (other)
chain: SPVDICTAKPRDIPMNPMCIYRSPEKKATEDEGSEQKIPEATNRRVWELSKANSRFATTFYQHLADSKNDNDNIFLSPLSISTAFAMTKLGACNDTLQQLMEVFKFDTISEKTSDQIHFFFAKLNCRLYRKANKASKLVSANRLFGDKSLTFNETYQDISELVYGAKLQPLDFKENAEQSRAAINKWVSNKTEGRITDVIPSEAINELTVLVLVNTIYFKGLWKSKFSPENTRKELFYKADGESCSASMMYQEGKFRYRRVAEGTQVLELPFKGDDITMVLILPKPEKSLAKVEKELTPEVLQEWLDELEEMMLVVHMPRFRIEDGFSLKEQLQDMGLVDLFSPEKSKLPGIVAEGRDDLYVSDAFHKAFLEVNEEGSEAAASTALSAQGRSLNPNRVTFKANRPFLVFIREVPLNTIIFMGRVANPCVK
notes: also called DES.LEAQ.502
B2: LEAQ.508 (other)
chain: SPVDICTAKPRDIPMNPMCIYRSPEKKATEDEGSEQKIPEATNRRVWELSKANSRFATTFYQHLADSKNDNDNIFLSPLSISTAFAMTKLGACNDTLQQLMEVFKFDTISEKTSDQIHFFFAKLNCRLYRKANKASKLVSANRLFGDKSLTFNETYQDISELVYGAKLQPLDFKENAEQSRAAINKWVSNKTEGRITDVIPSEAINELTVLVLVNTIYFKGLWKSKFSPENTRKELFYKADGESCSASMMYQEGKFRYRRVAEGTQVLELPFKGDDITMVLILPKPEKSLAKVEKELTPEVLQEWLDELEEMMLVVHMPRFRIEDGFSLKEQLQDMGLVDLFSPEKSKLPGIVAEGRDDLYVSDAFHKAFLEVNEEGSEAAASTALKAQGRSLNPNRVTFKANRPFLVFIREVPLNTIIFMGRVANPCVK
notes: also called DES.LEAQ.508
B3: LEAQ.506 (other)
chain: SPVDICTAKPRDIPMNPMCIYRSPEKKATEDEGSEQKIPEATNRRVWELSKANSRFATTFYQHLADSKNDNDNIFLSPLSISTAFAMTKLGACNDTLQQLMEVFKFDTISEKTSDQIHFFFAKLNCRLYRKANKASKLVSANRLFGDKSLTFNETYQDISELVYGAKLQPLDFKENAEQSRAAINKWVSNKTEGRITDVIPSEAINELTVLVLVNTIYFKGLWKSKFSPENTRKELFYKADGESCSASMMYQEGKFRYRRVAEGTQVLELPFKGDDITMVLILPKPEKSLAKVEKELTPEVLQEWLDELEEMMLVVHMPRFRIEDGFSLKEQLQDMGLVDLFSPEKSKLPGIVAEGRDDLYVSDAFHKAFLEVNEEGSEAAASTALHAQGRSLNPNRVTFKANRPFLVFIREVPLNTIIFMGRVANPCVK
notes: also called DES.LEAQ.506
B4: 13C (other)
chain: SPVDICTAKPRDIPMNPMCIYRSPEKKATEDEGSEQKIPEATNRRVWELSKANSRFATTFYQHLADSKNDNDNIFLSPLSISTAFAMTKLGACNDTLQQLMEVFKFDTISEKTSDQIHFFFAKLNCRLYRKANKASKLVSANRLFGDKSLTFNETYQDISELVYGAKLQPLDFKENAEQSRAAINKWVSNKTEGRITDVIPSEAINELTVLVLVNTIYFKGLWKSKFSPENTRKELFYKADGESCSASMMYQEGKFRYRRVAEGTQVLELPFKGDDITMVLILPKPEKSLAKVEKELTPEVLQEWLDELEEMMLVVHMPRFRIEDGFSLKEQLQDMGLVDLFSPEKSKLPGIVAEGRDDLYVSDAFHKAFLEVNEEGSEAAASTELEGAGRSLNPNRVTFKANRPFLVFIREVPLNTIIFMGRVANPCVK
notes: N-terminus printed as SPVDI---; text (ELEG) and primer codon GAG give E
B5: LEAQ.504 (other)
chain: SPVDICTAKPRDIPMNPMCIYRSPEKKATEDEGSEQKIPEATNRRVWELSKANSRFATTFYQHLADSKNDNDNIFLSPLSISTAFAMTKLGACNDTLQQLMEVFKFDTISEKTSDQIHFFFAKLNCRLYRKANKASKLVSANRLFGDKSLTFNETYQDISELVYGAKLQPLDFKENAEQSRAAINKWVSNKTEGRITDVIPSEAINELTVLVLVNTIYFKGLWKSKFSPENTRKELFYKADGESCSASMMYQEGKFRYRRVAEGTQVLELPFKGDDITMVLILPKPEKSLAKVEKELTPEVLQEWLDELEEMMLVVHMPRFRIEDGFSLKEQLQDMGLVDLFSPEKSKLPGIVAEGRDDLYVSDAFHKAFLEVNEEGSEAAASTALNAQGRSLNPNRVTFKANRPFLVFIREVPLNTIIFMGRVANPCVK
notes: also called DES.LEAQ.504
B6: 7EVEA.458 (other)
chain: SPVDICTAKPRDIPMNPMCIYRSPEKKATEDEGSEQKIPEATNRRVWELSKANSRFATTFYQHLADSKNDNDNIFLSPLSISTAFAMTKLGACNDTLQQLMEVFKFDTISEKTSDQIHFFFAKLNCRLYRKANKASKLVSANRLFGDKSLTFNETYQDISELVYGAKLQPLDFKENAEQSRAAINKWVSNKTEGRITDVIPSEAINELTVLVLVNTIYFKGLWKSKFSPENTRKELFYKADGESCSASMMYQEGKFRYRRVAEGTQVLELPFKGDDITMVLILPKPEKSLAKVEKELTPEVLQEWLDELEEMMLVVHMPRFRIEDGFSLKEQLQDMGLVDLFSPEKSKLPGIVAEGRDDLYVSDAFHKAFLEVNEEGSEAAASTEVEAAPRSLNPNRVTFKANRPFLVFIREVPLNTIIFMGRVANPCVK
modifications: N-linked glycans added by Drosophila S2 cells; not carried by the letters
notes: Made in Drosophila S2 cells (DES) on the S137A background; N-terminus printed as SPVDI---
B7: 7EVEA.459 (other)
chain: SPVDICTAKPRDIPMNPMCIYRSPEKKATEDEGSEQKIPEATNRRVWELSKANSRFATTFYQHLADSKNDNDNIFLSPLSISTAFAMTKLGACNDTLQQLMEVFKFDTISEKTSDQIHFFFAKLNCRLYRKANKASKLVSANRLFGDKSLTFNETYQDISELVYGAKLQPLDFKENAEQSRAAINKWVSNKTEGRITDVIPSEAINELTVLVLVNTIYFKGLWKSKFSPENTRKELFYKADGESCSASMMYQEGKFRYRRVAEGTQVLELPFKGDDITMVLILPKPEKSLAKVEKELTPEVLQEWLDELEEMMLVVHMPRFRIEDGFSLKEQLQDMGLVDLFSPEKSKLPGIVAEGRDDLYVSDAFHKAFLEVNEEGSEAAASTEVEIAPRSLNPNRVTFKANRPFLVFIREVPLNTIIFMGRVANPCVK
notes: as for B6
B8: LEAQ.503 (other)
chain: SPVDICTAKPRDIPMNPMCIYRSPEKKATEDEGSEQKIPEATNRRVWELSKANSRFATTFYQHLADSKNDNDNIFLSPLSISTAFAMTKLGACNDTLQQLMEVFKFDTISEKTSDQIHFFFAKLNCRLYRKANKASKLVSANRLFGDKSLTFNETYQDISELVYGAKLQPLDFKENAEQSRAAINKWVSNKTEGRITDVIPSEAINELTVLVLVNTIYFKGLWKSKFSPENTRKELFYKADGESCSASMMYQEGKFRYRRVAEGTQVLELPFKGDDITMVLILPKPEKSLAKVEKELTPEVLQEWLDELEEMMLVVHMPRFRIEDGFSLKEQLQDMGLVDLFSPEKSKLPGIVAEGRDDLYVSDAFHKAFLEVNEEGSEAAASTALTAQGRSLNPNRVTFKANRPFLVFIREVPLNTIIFMGRVANPCVK
notes: also called DES.LEAQ.503
B9: 7EVEA.455 (other)
chain: SPVDICTAKPRDIPMNPMCIYRSPEKKATEDEGSEQKIPEATNRRVWELSKANSRFATTFYQHLADSKNDNDNIFLSPLSISTAFAMTKLGACNDTLQQLMEVFKFDTISEKTSDQIHFFFAKLNCRLYRKANKASKLVSANRLFGDKSLTFNETYQDISELVYGAKLQPLDFKENAEQSRAAINKWVSNKTEGRITDVIPSEAINELTVLVLVNTIYFKGLWKSKFSPENTRKELFYKADGESCSASMMYQEGKFRYRRVAEGTQVLELPFKGDDITMVLILPKPEKSLAKVEKELTPEVLQEWLDELEEMMLVVHMPRFRIEDGFSLKEQLQDMGLVDLFSPEKSKLPGIVAEGRDDLYVSDAFHKAFLEVNEEGSEAAASTEVEVAGRSLNPNRVTFKANRPFLVFIREVPLNTIIFMGRVANPCVK
modifications: N-linked glycans added by Drosophila S2 cells; not carried by the letters
notes: as for B6

Tests used:
human thrombin [1] = molecular target: T3, human thrombin (human, UniProt P00734 328-622); experiment: thrombin inhibition rate in the presence of heparin (HAH)
human thrombin [2] = molecular target: T3, human thrombin; experiment: thrombin inhibition rate in the absence of heparin
human factor Xa = human factor Xa (human, UniProt P00742 41-179; P00742 235-488, limits assumed); experiment: cell-based or functional assay
[3] = molecular target: T1, human neutrophil cathepsin G; experiment: cell-based or functional assay
[4] = molecular target: T2, human neutrophil elastase; experiment: cell-based or functional assay
human thrombin [5] = molecular target: T3, human thrombin; experiment: cell-based or functional assay
factor Xa = molecular target: T4, factor Xa (human, UniProt P00742 41-179; P00742 235-488, limits assumed); experiment: heparin cofactor assay, HCA expt #4; ATIII titrated on 10 nM fXa + 50 ug/ml UFH, chromogenic readout
T4 construct: Active factor Xa has a light and a heavy chain; also called fXa
Method: (§1) After 3 minutes, the reactions were quenched with polybrene and chromogenic substrate S2238 (thrombin) or S2765 (fXa), and the initial rate of chromophore production (405 nm) recorded to obtain a measurement residual, uninhibited thrombin or factor Xa. IC50s were determined from plots of ATIII concentration vs. percent residual target enzyme activity.

thrombin = thrombin (human, UniProt P00734 328-622); experiment: heparin cofactor assay, HCA expt #4; ATIII titrated on 10 nM thrombin + 50 ug/ml UFH, chromogenic readout
Method: as §1

Chain of human factor Xa (P00742 41-179 limits assumed, chain 1 of 2): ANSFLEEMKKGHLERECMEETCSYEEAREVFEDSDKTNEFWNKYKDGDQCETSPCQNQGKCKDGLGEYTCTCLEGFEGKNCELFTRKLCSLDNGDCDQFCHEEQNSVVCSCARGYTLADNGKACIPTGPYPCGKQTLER
Chain of human factor Xa (P00742 235-488 limits assumed, chain 2 of 2): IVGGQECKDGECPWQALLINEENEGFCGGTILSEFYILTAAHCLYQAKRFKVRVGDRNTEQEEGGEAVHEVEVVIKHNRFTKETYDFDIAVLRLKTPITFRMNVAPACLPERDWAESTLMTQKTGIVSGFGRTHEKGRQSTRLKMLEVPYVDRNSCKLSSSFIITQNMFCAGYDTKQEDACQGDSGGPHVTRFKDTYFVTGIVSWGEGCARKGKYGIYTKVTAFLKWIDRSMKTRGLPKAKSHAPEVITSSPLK
T4 sequence (P00742 41-179 limits assumed, form in doubt, chain 1 of 2): as the sequence (P00742 41-179 limits assumed, chain 1 of 2) above
T4 sequence (P00742 235-488 limits assumed, form in doubt, chain 2 of 2): as the sequence (P00742 235-488 limits assumed, chain 2 of 2) above

Binder	Kapp, thrombin HAH (human thrombin [1])	Kapp, thrombin progressive (human thrombin [2])	IC50 fXa/UFH (HCA #5) (human factor Xa)	IC50 fXa/UFH (HCA #6) (human factor Xa)	rsd Xa, no add (CA #51, stg 1 conc 200) (human factor Xa)	rsd IIa, catG (CA #51, stg 1 conc 200) [3]	rsd Xa, catG (CA #51, stg 1 conc 200) [3]	rsd IIa, HNE (CA #51, stg 1 conc 200) [4]	rsd Xa, HNE (CA #51, stg 1 conc 200) [4]	IC50 IIa/UFH (HCA #5) (human thrombin [5])	IC50 IIa/UFH (HCA #6) (human thrombin [5])	rsd IIa, no add (CA #51, stg 1 conc 200) (human thrombin [5])	IC50 (factor Xa)	IC50 (thrombin)
B1	1.1e+07 M⁻¹ s⁻¹	3000 M⁻¹ s⁻¹	12 nM	19 nM	1%	2%	-1%	1%	1%	16 nM	18 nM	1%	–	–
B2	1.1e+07 M⁻¹ s⁻¹	4100 M⁻¹ s⁻¹	19 nM	–	-1%	1%	-2%	1%	-3%	18 nM	–	1%	–	–
B3	1.1e+07 M⁻¹ s⁻¹	4100 M⁻¹ s⁻¹	13 nM	–	–	–	–	–	–	9 nM	–	–	–	–
B4	–	–	–	–	–	–	–	–	–	–	–	–	33 nM	> 1000 nM
B5	6.1e+06 M⁻¹ s⁻¹	3300 M⁻¹ s⁻¹	14 nM	–	0%	1%	-1%	1%	1%	17 nM	–	1%	–	–
B6	–	–	–	–	–	–	–	–	–	–	–	–	250 nM	> 1000 nM
B7	–	–	–	–	–	–	–	–	–	–	–	–	75 nM	> 1000 nM
B8	1.6e+07 M⁻¹ s⁻¹	3700 M⁻¹ s⁻¹	11 nM	–	1%	1%	-2%	1%	0%	13 nM	–	0%	–	–
B9	–	–	–	–	–	–	–	–	–	–	–	–	110 nM	> 1000 nM
